Results: article PMC4158924
pKd: −log10 of the molar value.

Target: K12-acetylated histone H4 tail peptide (residues 1–20), biotinylated at the C-terminus (UniProt P62805)
Assay: SPR

second bromodomain of human BRD2 (BRD2-BD2: residues 348–455) (from UniProt P25440 348-455) (domain or fragment)
pKd: 3.52
